Experimental data published in paper PMC4794788, “Cell‐free synthesis of isotopically labelled peptide ligands for the functional characterization of G protein‐coupled receptors” (FEBS Open Bio, 2015).

How the values were obtained:
[1] = target: T1, human complement 5a receptor (C5aR) (Homo sapiens, UniProt P21730); test: Saturation radioligand binding of [^3H]‐C5a^CF to C5aR in Sf9 membranes; conditions: radioligand 31 pM‐8 nM; human C5aR coproduced with Gαi2, Sf9 membranes (10–50 μg total protein); 120 min, room temperature; 50 mM Hepes‐NaOH pH 7.4, 5 mM MgCl2, 1 mM CaCl2, 0.5% BSA, 75 mM NaCl; nonspecific: 50 μM H2N‐ChaW; filtration, scintillation counting; means ± SEM from three or two independent experiments in triplicate; read-out: KD (dissociation constant)
T1 construct: 10x His (N); FLAG (N); StrepII (C); made in house; host or cells: Sf9 insect cells (recombinant baculovirus, pOET5 / flashBAC); membrane preparation
T1 sequence (P21730 1-350): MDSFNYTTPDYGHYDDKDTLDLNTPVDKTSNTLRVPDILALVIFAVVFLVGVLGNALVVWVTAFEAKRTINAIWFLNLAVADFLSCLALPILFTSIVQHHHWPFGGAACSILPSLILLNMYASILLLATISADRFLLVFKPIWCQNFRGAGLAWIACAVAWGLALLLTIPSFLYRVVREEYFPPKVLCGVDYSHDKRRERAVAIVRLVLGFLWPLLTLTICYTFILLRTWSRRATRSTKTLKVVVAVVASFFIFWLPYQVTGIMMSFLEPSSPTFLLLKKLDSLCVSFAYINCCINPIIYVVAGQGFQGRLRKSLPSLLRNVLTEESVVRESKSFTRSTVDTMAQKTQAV
Excerpt: The complement 5a receptor was coproduced with Gαi2 in Sf9 insect cells. The cDNA encoding the human complement 5a receptor flanked by an N‐terminal 10x His and FLAG tag and a C‐terminal StrepII tag was cloned into the pOET5 transfer vector (Oxford Expression Technologies, Oxford, UK). pOET5 contains two expression cassettes, the receptor is expressed under the control of a polyhedron promoter; Gαi2 expression is regulated by a p10 promoter. Recombinant baculoviruses were generated with the flashBAC protein expression system (Oxford Expression Technologies) according to manufacturer's instructions. […] Total membrane protein content was determined by the bicinchoninic acid (BCA) method using bovine serum albumin as the standard.
For the determination of binding parameters, membranes containing the respective receptors (10–50 μg total membrane protein) were incubated with cell‐free synthesized tritium‐labelled ligands in varying concentrations. Binding was terminated by rapid filtration over glass fibre filters pretreated with 0.3% polyethyleneimine using a Brandel harvester (Brandel, Alpha Biotech Ltd, Killearn, UK) and analysed by liquid scintillation counting. […]
Data are represented as means ± SEM from three or two independent experiments performed in triplicate and analysed in […] […]

[2] = target: C5aR; conditions: C5aR in native human tissues; literature comparison; cited from earlier work
Method: Table 1 Binding parameters of cell‐free synthesized radioligands | column: Literature KD [nM] || As the interaction between C5a and its receptor is mainly mediated by the disulphide bridged core region of C5a (residues 21–55, 22) and the C‐terminal region (especially Arg^74 30) the N‐terminal hexa‐histidine tag was not removed. The cell‐free synthesized ligand binds to the complement 5a receptor with a dissociation constant of 1.18 ± 0.27 nM (Fig. 4A), which corresponds to values determined by Gerard and Gerard for C5aR in native human tissues (1 nM 31, Table 1). Competition experiments with the unlabelled small molecule inverse agonist NDT 9513727 and the peptide antagonist H2N‐ChaW resu ...

Kd [1]: 1.18 ± 0.27 nM
B1: [^3H]‐C5a^CF: cell‐free‐synthesized tritium‐labelled complement 5a with N‐terminal hexa‐histidine tag; contains three proline residues (protein, UniProt P01031 678-751, looked up)
C5a anaphylatoxin: TLQKKIEEIAAKYKHSVVKKCCYDGACVNNDETCEQRAARISLGPRCIKAFTECCVVASQLRANISHKDMQLGR
modifications: C5a anaphylatoxin tritium label
Kd [2]: 1 nM
